Measurements: patent US12630600B2 (MEDIMMUNE LIMITED, priority 2022, dated 2026)
Starred links: 1 amine or outer side, 2 acyl side, 3 side chain; linkers in the order of their positions; H or OH if unused. Non-standard residues stand in square brackets, D forms with d. Groups on a side chain read outwards from the residue. No end group written: not given here. *: point of attachment. C18 diacid = O=C(O)CCCCCCCCCCCCCCCCC(=O)*; γGlu = O=C(O)[C@H](CCC(=O)[*:2])N[*:1]; αMeF = C[C@](N)(Cc1ccccc1)C(=O)O; AEEA = NCCOCCOCC(=O)O; Aib = CC(C)(N)C(=O)O

Tests used:
human glucagon receptor = human glucagon receptor (human, UniProt P47871); assay: cell-based or functional assay
human GLP-1 receptor = human GLP-1 receptor (human, UniProt P43220); assay: cell-based or functional assay

cAMP production, hGluc-R EC50 (pM) (human glucagon receptor)	cAMP production, hGLP-1R EC50 (pM) (human GLP-1 receptor)	Binder
702	45.2	H[Aib]QGTFTSDVSK[αMeF]LDSK([γGlu-γGlu-AEEA-AEEA-γGlu-γGlu-C18 diacid])RARDFVRWLLE[Aib]G-OH (N-terminus assumed; SMILES CC(C)C[C@H](NC(=O)[C@H](Cc1c[nH]c2ccccc12)NC(=O)[C@H](CCCNC(=N)N)NC(=O)[C@@H](NC(=O)[C@H](Cc1ccccc1)NC(=O)[C@H](CC(=O)O)NC(=O)[C@H](CCCNC(=N)N)NC(=O)[C@H](C)NC(=O)[C@H](CCCNC(=N)N)NC(=O)[C@H](CCCCNC(=O)CC[C@H](NC(=O)CC[C@H](NC(=O)COCCOCCNC(=O)COCCOCCNC(=O)CC[C@H](NC(=O)CC[C@H](NC(=O)CCCCCCCCCCCCCCCCC(=O)O)C(=O)O)C(=O)O)C(=O)O)C(=O)O)NC(=O)[C@H](CO)NC(=O)[C@H](CC(=O)O)NC(=O)[C@H](CC(C)C)NC(=O)[C@](C)(Cc1ccccc1)NC(=O)[C@H](CCCCN)NC(=O)[C@H](CO)NC(=O)[C@@H](NC(=O)[C@H](CC(=O)O)NC(=O)[C@H](CO)NC(=O)[C@@H](NC(=O)[C@H](Cc1ccccc1)NC(=O)[C@@H](NC(=O)CNC(=O)[C@H](CCC(N)=O)NC(=O)C(C)(C)NC(=O)[C@@H](N)Cc1c[nH]cn1)[C@@H](C)O)[C@@H](C)O)C(C)C)C(C)C)C(=O)N[C@@H](CC(C)C)C(=O)N[C@@H](CCC(=O)O)C(=O)NC(C)(C)C(=O)NCC(=O)O) [Peptide 144]
32.6	19.1	H[Aib]QGTFTSDVSK[αMeF]LDSK([AEEA-AEEA-γGlu-C18 diacid])RARDFVQWLLE[Aib]G-OH (N-terminus assumed; SMILES CC(C)C[C@H](NC(=O)[C@H](Cc1c[nH]c2ccccc12)NC(=O)[C@H](CCC(N)=O)NC(=O)[C@@H](NC(=O)[C@H](Cc1ccccc1)NC(=O)[C@H](CC(=O)O)NC(=O)[C@H](CCCNC(=N)N)NC(=O)[C@H](C)NC(=O)[C@H](CCCNC(=N)N)NC(=O)[C@H](CCCCNC(=O)COCCOCCNC(=O)COCCOCCNC(=O)CC[C@H](NC(=O)CCCCCCCCCCCCCCCCC(=O)O)C(=O)O)NC(=O)[C@H](CO)NC(=O)[C@H](CC(=O)O)NC(=O)[C@H](CC(C)C)NC(=O)[C@](C)(Cc1ccccc1)NC(=O)[C@H](CCCCN)NC(=O)[C@H](CO)NC(=O)[C@@H](NC(=O)[C@H](CC(=O)O)NC(=O)[C@H](CO)NC(=O)[C@@H](NC(=O)[C@H](Cc1ccccc1)NC(=O)[C@@H](NC(=O)CNC(=O)[C@H](CCC(N)=O)NC(=O)C(C)(C)NC(=O)[C@@H](N)Cc1c[nH]cn1)[C@@H](C)O)[C@@H](C)O)C(C)C)C(C)C)C(=O)N[C@@H](CC(C)C)C(=O)N[C@@H](CCC(=O)O)C(=O)NC(C)(C)C(=O)NCC(=O)O) [Peptide 143]
108	59.4	H[Aib]QGTFTSDVSK[αMeF]LDSK([AEEA-AEEA-γGlu-C18 diacid])RARDFVAWLLE[Aib]G-OH (N-terminus assumed; SMILES CC(C)C[C@H](NC(=O)[C@H](Cc1c[nH]c2ccccc12)NC(=O)[C@H](C)NC(=O)[C@@H](NC(=O)[C@H](Cc1ccccc1)NC(=O)[C@H](CC(=O)O)NC(=O)[C@H](CCCNC(=N)N)NC(=O)[C@H](C)NC(=O)[C@H](CCCNC(=N)N)NC(=O)[C@H](CCCCNC(=O)COCCOCCNC(=O)COCCOCCNC(=O)CC[C@H](NC(=O)CCCCCCCCCCCCCCCCC(=O)O)C(=O)O)NC(=O)[C@H](CO)NC(=O)[C@H](CC(=O)O)NC(=O)[C@H](CC(C)C)NC(=O)[C@](C)(Cc1ccccc1)NC(=O)[C@H](CCCCN)NC(=O)[C@H](CO)NC(=O)[C@@H](NC(=O)[C@H](CC(=O)O)NC(=O)[C@H](CO)NC(=O)[C@@H](NC(=O)[C@H](Cc1ccccc1)NC(=O)[C@@H](NC(=O)CNC(=O)[C@H](CCC(N)=O)NC(=O)C(C)(C)NC(=O)[C@@H](N)Cc1c[nH]cn1)[C@@H](C)O)[C@@H](C)O)C(C)C)C(C)C)C(=O)N[C@@H](CC(C)C)C(=O)N[C@@H](CCC(=O)O)C(=O)NC(C)(C)C(=O)NCC(=O)O) [Peptide 142]
